Source: the nanobody polyreactivity screen of Harvey et al. (2022)

Experiment: yeast display, Sf9 membrane polyspecificity reagent, FACS + sequencing; frameworks hold sequencing errors
How it was run: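 Synthetic nanobody libraries on Saccharomyces cerevisiae BJ5465 were galactose-induced for 36–48 hours, stained 1 hour at 4 °C with 10% biotinylated, detergent-solubilized Sf9 membrane reagent and enriched on streptavidin microbeads. FACS then separated cells into low and high (top ~1%) gates by anti-HA (expression) and streptavidin (reagent binding) fluorescence. Genes were colony-PCR amplified, MiSeq 2 × 250 sequenced and CDR-length filtered. A clone's polyreactivity label is that of its gate of origin.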

QVQLVESGGGLVQAGGSLRLSCAASGRIFSTYTMGWYRQAPGKERELVASISWSGVRTRYADSVKGRFTISRDNAQNTVYLQMNSLKPEDTAVYYCAAVVPYYYRSPSNHMGYWGQGTQVTVSS
polyreactivity (PSR sort gate): high polyreactivity

QVQLVDSGGGLVQAGGSLRLSCAASGFTFYRYAMGWYRQAPGKERELVAAITGRAGRTYYADSVKGRFTISRDNAKNTVYLQMNSLKPEDTAVYYCSGYRYYGGYGYWGQGTQVTVSS
polyreactivity (PSR sort gate): high polyreactivity

QVQLVESGGGLVQAGGSLRLSCAASGANFGRNDMGWYRQAPGKERELVAAISWSGGRTYYADSVKGRFTISRDNAKNTVYLQMISLKPEDTAVYYCNRDYYVGRYDYWGQGTQVTVSS
polyreactivity (PSR sort gate): high polyreactivity

QVQLVESGGGLVQAGGSLRLSCAASGYGYVMGWYRQAPGKERELVAAISRSGGSTYYADSVKGRFTISRDNAKNTVYFQMNSLIPEDTAVYDCAARWPGAYHDYGYWGQVTQVTVSS
polyreactivity (PSR sort gate): high polyreactivity

QVQLVESGGGLVQAGGSLRLSCAASGRVRYAIGWYRQAPGKESELVASITRRAGNTYYADSVKGRFTISRDNAKNTVYLQMNSLKPEDTAVYYCAAADVGAYRGNYWGQGTLVTVSS
polyreactivity (PSR sort gate): high polyreactivity

QVQLVESGGGLVQAGGSLRLSCAASGITLYRYVMGWYRQAPGKERELVAAISGRGTSTYYADSVKGRFPISRDNAKNTVYLQMNSLKPEDTAVYYCNAEYTKTGALVIPYTYYYAEDYWGQGTQVTVSS
polyreactivity (PSR sort gate): low polyreactivity

QVQLVESGGGLVQAGGSLRLSCAASGRIFKINAMGWYRQAPGKERELVAGISGSGSDTYYSDSVKGRFTISRDNAKNTVYLQMNSLKPEDTAVYYCAAVAYDWALFYYWGQGTQVTVSS
polyreactivity (PSR sort gate): low polyreactivity

QVQLVESGGGLVQAGGSLRLSCAASGSNFVGYAMGWYRQAPGKERELVAGITASGTNTYYADSVKGRFTISRDNAKNTVYLQMNSLKPEDTAVYYCAAESNRRFEGEYWGQGTQVTVSS
polyreactivity (PSR sort gate): high polyreactivity

QVQLVESGGGLVQAGGSLRLSCAASGGIFTKNAMGWYRQAPGKERELVAGISRTGGNTYYADSVKGRFTISRDNAKNTVYLQMNSLKPEDTAVYYCHWAKWYRYGGYRSRYDYWGQGTQVTVSS
polyreactivity (PSR sort gate): low polyreactivity

QVQLVESGGGLVQSGGSLRLSCAASGIIFQYYAMGWYRQAPGKEMELVAAITSSGGSTFYADSVKGSFTISRDNAKNTVYLQMNSLKPEDTAVYYCAAVYHRSTYDYWGQGTQVNVSS
polyreactivity (PSR sort gate): high polyreactivity

QVQLVESGGGLVQAGGSLRLSCAASGFTFDFYAMGWYRQAPGKERELVAAISKNDGTTYYADSVKGRFTISRDNAKNTVYLQMNSLKPEDTAVYYCAAESGYAVYTYVSSGDYWGQGTQVTVSS
polyreactivity (PSR sort gate): low polyreactivity

QVQLVESGGGLVQAGGSLRLSCAASGSIFGRYVKGWYRQAPGKERELVATISSGGSTYYADSVKGRFTISRDNAKNTVYLQMNSLKPEDTAVYYCAASYSRFVDWIGDPGYDYWGQGTQVTVSS
polyreactivity (PSR sort gate): low polyreactivity

QVQLVESGGGLVQAGGSLRLSCAASGTFYTNAMGWYRPAPGKERELVAAITSGGSTYYADSVKGRFTISRDNAKNTVYLQMNSLKPEDTAVYYCAADPVSHGYDIDYDYWGQGTQVTVSS
polyreactivity (PSR sort gate): low polyreactivity

QVQLVESGGGLVQAGGSLRSSCAASGYTFRYYAMGWSRQAPGKERELVAAITSSSNTTYADSVKGRFTISRDNEKNTVYLQMNSLKPDDTGVYYCNTPYFTGYYWGQGTQVTVSS
polyreactivity (PSR sort gate): high polyreactivity

QVQLVESGGGLVQAGGSLRLSCAASGRTFYSYAMGWYRQAPGKERELVASISYGGGTNYADSVKGRFTISRDNAKNTVYLQMNSLKPEDTAVYYCAAKYWFFYPYDYWGQGTQVTVSS
polyreactivity (PSR sort gate): low polyreactivity

QVQLVESGGGLVQAGGSLRLSCAPSGFIFYFYTMGRYRQAPGKEMELVAGITWLDGSTYYADSVKGRLTISRDNAKNTVYLQRNSLKPEDTAVYYCAVDYDLVVSPYYYWGQGTQVTVSS
polyreactivity (PSR sort gate): low polyreactivity

QVQLVESGGGLVQAGGSLRLSCAASGFIFLYYAMGWYRQAPGKERELVAAISRSGGRTYYADSVKGRFTISRDNAKNTVYLQMNSLKPEDTAVYYCAADRLGSISGYDYWGQGTQVTVSS
polyreactivity (PSR sort gate): high polyreactivity

QVQLVESGGRLVQAGGSLRLSCAASGRTFGGYMGWYRQAPGKESELVAVISSGDSTNYADSVKGRFTITRDNAKNTVYLQMNSVKPEDSAVYYCIAYGSDRLTLDDFWGQGTQVTVSS
polyreactivity (PSR sort gate): low polyreactivity

QFQLVESGRGLVQAGGSLRLSCASSGSTQKYAMGWYRQAPRKERELVAAIRRTGGSTYYADSVKGRFKISRDNAKNTVYLQMNSLKPEDTAVYYCAAYIWVAESYDWGQGTQVTVSS
polyreactivity (PSR sort gate): low polyreactivity

QVQLVESGGGLVQAGGSLRLSCAASGSILAGYAMGWYRQAPGKERELVAAISGGGGSTYYADSVKGRFTISRDNAKNTVYLQMNSLKPEDTAVYYCAAQDTYYGLFSYWIPWSGYWGQGTQVTVSS
polyreactivity (PSR sort gate): high polyreactivity

QVQLVESGGGLVQAGGSLRLSCAASGINFQRNDMGWYRQAPGKERELVANIRDGGITYADSVKGRFTISRDNAKNTVYLQMNSLKPEDTAVYYCARDDTSPGYGDQSSNAAYYYWGQGTQVTVSS
polyreactivity (PSR sort gate): low polyreactivity

QVQLVESGGGLVQAGGSLRLSCAASGGTFKYYDMGWYRQAPGKEREFVAAISKRVSSTYYADSVKGRFTISRDNAKNTVYLQMNSLKPEDTAVYYCAAYPVRYYNQYDYWGQGTQVTVSS
polyreactivity (PSR sort gate): low polyreactivity

QVQLVESGGGLVQAGGSLRLSCAASGFTFYYYAMGWYRQAPGKERELVATISRSGGSTYYADSVKGRFTISRDNAKNTVYLQMNSLKPEDTAVYYCAARSYKSPRDYDYWGQGTQVTVSS
polyreactivity (PSR sort gate): high polyreactivity

QVHLVESGGGLVQAGGSLRLSCAASGSIFPRNAMGWYRQAPGKERELVAAISSGGGRTYYADSVKGRFTISRDNAKNTVYLQMNSLKPVDTAVYYCAREVWGYRWLYPVYILDYWGQGTQVTVSS
polyreactivity (PSR sort gate): high polyreactivity

QVQLVESGGGLVQAGGSLRLSCAASGFTFDINAMGWYRQAPGKERELVADITSGGTTDYADSVKGRFTISRDNAKNTVYLQMNSLKPEDTADYYCAAEVLDAYYGDDYWGQGTQVTVSS
polyreactivity (PSR sort gate): high polyreactivity

QVQLVESGGGLVQAGGSLRLSCAASGSTIYDNAMGWSRQAPGKERELVAAITWSVGRTYYADSVKGRFTISRDNAKNTVYLQMNSLKPEDTAVYYCAARYQYYSTYGVTLDYWGQGTQVTVSS
polyreactivity (PSR sort gate): low polyreactivity

QVQLVESGGGLVQAGGSLRLSCAASGSTFYVNAMGWYRQAPGKEREFVAAISWSGGSTYYADSVKGRFTISRDNAKNTVYLQMNSLKPEDTAVYYCAADRVRKDGVLFDYWGQGTQGTVSS
polyreactivity (PSR sort gate): high polyreactivity

QVQLVESGGGLVQAGGSLRLSCAASGITFGTYAMGWYRQATGKERELVDAITRGGRTYYADSVKGRFTISRDNDKNTVYLQMYSLKPEDTAVYYCNAYVLRRYGWRSGDDYDYWGQGTQVNVSS
polyreactivity (PSR sort gate): high polyreactivity

QVQLVESGGGLVQAGGSLRLSCAASGRIFAYYAMGWYRQAPGKERELVAAINSNGGSTYYADSVKGRFTISRDNAKNTVYLQLNSLKPEDTAVYYCAAGARYKMGYWGQGTQVTVSS
polyreactivity (PSR sort gate): high polyreactivity

QVQLVESGGGLVQAGGSLRLSCAASGSIFTWYAMGWSRQAPGKERELVAAITRGGSTYADSVKGRFTISRDNANYTVYLQMNSLKPADTAVYYCNAVYGVYDFNYWGQGTQVTVSS
polyreactivity (PSR sort gate): low polyreactivity

QVLLQETGGGLVQAGGSLSLSCAASGTISTDIRMGWYRLAPGKEREFVASIDGCSTTYYADSVKGRFTFSRDNAKNTVYLQMNRLIPEDTSMYYCAAREATEFYLYYWGQGTQVTVSS
polyreactivity (PSR sort gate): low polyreactivity

QVHLVESGGGLVQEGGSLRLSCAASGSIFQYYAMGWYIQAPGKERELVAAISWRSGRTYYADSVKGRFTISRDNAKNTVYLQMNSLKPEDTAVYYCIRGYARDYDYWGQGTQVTVSS
polyreactivity (PSR sort gate): high polyreactivity

QVQLVESGGGLVQAGGSLRLSCAASGRTSLYYAMGWYRQAPGKEREFVATITSGGSTNYADSVKGRFTISRDNAKNTVYLQMNSLKPEDTALYYCNARWRRGKTRYGYWGQGTQVNVSS
polyreactivity (PSR sort gate): high polyreactivity

QVQLVESGGGLVKAGGSLRLRGAASGSIFGRYAMGWYRQAPGKERELVAAISKNGGSTYYADSVKGRFTISRDNAKNTVYLQMNILKPEDTAVYYCNTVRYSGNYRDQEGDYWGQGTQVTVSS
polyreactivity (PSR sort gate): high polyreactivity

QVQLVESGGGLVQAGGSLRLSCAASGRTFGYYAMGWYRQAPGKERELVAAITRTGGSTHYADSVKGRFTISRDNAKNTVYLQMNSLKPEDTAVYYCARDYRYTIPYDYWGQGTQVTVSS
polyreactivity (PSR sort gate): low polyreactivity

QVQLVESGGGLVQAGGSLRLSCAASGFTFYLYTMGWYRQAPGKERELVASLTGSGGSTYYADSVKGRFTISRDNAKNTVYLQMHSLKPEDTAVYYCNARYYVYSATVDRYYHFYYWGQGTQVTVSS
polyreactivity (PSR sort gate): high polyreactivity

QVQLVESGGGLVQAAGSLRLSCAASGRTFSGYAMGWYRQAPGKERELVAAIRWSGGSTYYADSVKGRFTISRDNAKNTVYLQMNSLKPEDTAVYYCATRDYYYRYGYWGQGTQVTVSS
polyreactivity (PSR sort gate): high polyreactivity

QVQLVESGGGLVQAGGSLRLSCAASGITFRYYAMGWYRPAPGKERELVAALTSGGSTNYADSVKGRFTISRDNAKNTVYLQMNSLIPEDTAVYYCAATSYYRTNYGLVFLYRRNYWGQGTQVTVSS
polyreactivity (PSR sort gate): high polyreactivity

QVQLQESGDGLVQAGGSLRLSSAASGTIFSDYGMGWYRQAPGKERELLAGISDGCNTNYTDSVKGRFTISRDNAHRVSADDQPETGGYRGVLLRGSERWLLFYVYWGLGTQVTVSS
polyreactivity (PSR sort gate): high polyreactivity

QVQLVESGGGLVQAGGSLRLSCAASYNAMGWYRQAPGKEREFVAGITQSGGSTYYADSVKGRFTISRDNAKNTVYLQMNSLKAEDTAVYYCAKRLYKWGQGTQVTVSS
polyreactivity (PSR sort gate): low polyreactivity

QVQLVESGGGLVQAGGSLRLRSAASGIILGKYAMGWYRQAPGKERELVAAISGRGGRTYYADSVKGRFTISRDNAKNTVYLQMNSLKQEDTAVYYWWGQGTQVTVSS
polyreactivity (PSR sort gate): low polyreactivity

QVQLVESGGGLVQAGGSLRLSCAASGFTFRYNAMGWYRQAPGKERELVAGISWTSGSTYYADSVKGRFTISRDNAKNTVYLQMNSLKPEDTAVYYCAAYYRRDAALYGYWGQGTQVTVSS
polyreactivity (PSR sort gate): high polyreactivity

QVQLVESGAGLVQAGGSLRLSCAASGSIFGFYAMGWYRQAPGKERELVASISSSGDSTYYADSVKGRFTISRDNAKYTVYLPMNSLKPEDTAVYYCAAVVYDIYGYEFDYWGLGTQVTVSS
polyreactivity (PSR sort gate): low polyreactivity
